Results taken from PMC8716928 (2021).

B1: GvpM wild type, entire protein, with CGFP fused at the C-terminus [Halobacterium salinarum] / GvpL with NGFP fused at the N-terminus [Halobacterium salinarum] (parent complex)
chain 1: MEPTKDETHAIVEFVDVLLRDGAVIQADVIVTVADIPLIGISLRAAIAGMTTMTEYGLFEEWDAAHRQQSEAFTTSPTADRRED
chain 2: MTDHRPSPEEEQTTANEERTVSNGRYLYCVVDTTSSESATLSTTGVDDNPVYVVEADGVGAVVHDCETVYETEDLEQVKRWLVTHQQVVDAASDAFGTPLPMRFDTVLEGGDASIERWLEDHYEGFRDELASFAGVWEYRINLLWDSAPFEETIADRDDRLRELRQRQQQSGAGKKFLLEKQSDQRLQELKRERRTELADQLKEAITPVVNDLTEQDTNTPLQDEHSSIEKEQIVRFAVLADEDDETALGDRLDTIVEHEGVEIRFTGPWPPYTFAPDIGK
B2: GvpJ wild type with CGFP fused at the C-terminus [Halobacterium salinarum] / GvpL with NGFP fused at the N-terminus [Halobacterium salinarum] (parent complex)
chain 1: MSDPKPTRSQGDLAEMLEMLLDKGVVVNADIAVSVGDTELLGIELRAAIASFETAAEYGLEFPTGTDMERVESAANISPDQSDPASETQSETESTNPLSDDSTPTASTSAEETK
chain 2: B1 chain 2
B3: Fragment M1–25 of GvpM with NGFP fused at the C-terminus [Halobacterium salinarum] / GvpL with CGFP fused at the C-terminus [Halobacterium salinarum] (parent complex)
chain 1: MEPTKDETHAIVEFVDVLLRDGAVI
chain 2: B1 chain 2

Variants of: B1
Assay: split-GFP; Hfx. volcanii transformants; parent: 7.8; read off a plot

response	Variant
~9.5	chain 1 MEPTKDETHAIVEFVDVLLRDDAVIQADVIVTVADIPLIGISLRAAIAGMTTMTEYGLFEEWDAAHRQQSEAFTTSPTADRRED
~18	chain 1 MEPTKDETHAIVEFVDVLLRDGAVIQADVIVTVADIPLIGISLREAIAGMTTMTEYGLFEEWDAAHRQQSEAFTTSPTADRRED
~6.4	chain 1 MEPTKDETHAIVEFEDVLLRDGAVIQADVIVTVADIPLIGISLRAAIAGMTTMTEYGLFEEWDAAHRQQSEAFTTSPTADRRED
~7.1	chain 1 MEPTKDETHAIVEFVDVLLRDGAVIQADVIVTVADIPLIGISLRAAAAGMTTMTEYGLFEEWDAAHRQQSEAFTTSPTADRRED
~5.6	chain 1 MEPTKDETHAIVEFVDVLLRDGAVIQADVIVTVADIPLIGISLRAEIAGMTTMTEYGLFEEWDAAHRQQSEAFTTSPTADRRED
~9.7	chain 1 MEPTKDETHAIVEFVDVLLRDGDVIQADVIVTVADIPLIGISLRAAIAGMTTMTEYGLFEEWDAAHRQQSEAFTTSPTADRRED

Variants of: B2
Assay: split-GFP; Hfx. volcanii transformants; parent: 13; read off a plot

Variant	response
chain 1 MSDPKPTRSQGDLAEMLRMLLDKGVVVNADIAVSVGDTELLGIELRAAIASFETAAEYGLEFPTGTDMERVESAANISPDQSDPASETQSETESTNPLSDDSTPTASTSAEETK	~9.2
chain 1 MSDPKPTRSQGDLAEMLEMLLDKGVVVNADIADSVGDTELLGIELRAAIASFETAAEYGLEFPTGTDMERVESAANISPDQSDPASETQSETESTNPLSDDSTPTASTSAEETK	~17
chain 1 MSDPKPTRSQGDLAEMLEMLLDKGVVVNADIAVSVGDTELLGIELRDAIASFETAAEYGLEFPTGTDMERVESAANISPDQSDPASETQSETESTNPLSDDSTPTASTSAEETK	~22
chain 1 MSDPKPTRSQGDLAEMLEMLLDKGVVVNADIAVSVGDTELLGIELRAAIASFETAAEEGLEFPTGTDMERVESAANISPDQSDPASETQSETESTNPLSDDSTPTASTSAEETK	~7.8
chain 1 MSDPKPTRSQGDLAEMLEMLLNKGVVVNADIAVSVGDTELLGIELRAAIASFETAAEYGLEFPTGTDMERVESAANISPDQSDPASETQSETESTNPLSDDSTPTASTSAEETK	~14
chain 1 MSDPKPTRSQGDLAAMLEMLLDKGVVVNADIAVSVGDTELLGIELRAAIASFETAAEYGLEFPTGTDMERVESAANISPDQSDPASETQSETESTNPLSDDSTPTASTSAEETK	~9.5
chain 1 MSDPKPTRSQGDLAEMLEMLLDKGVVVNDDIAVSVGDTELLGIELRAAIASFETAAEYGLEFPTGTDMERVESAANISPDQSDPASETQSETESTNPLSDDSTPTASTSAEETK	~25
chain 1 MSDPKPTRSQGDLAEMLEMLLDKGVVVNADIAVSVGDTELLGIELRAAIASFETAAEYGLEFPTGTDMARVESAANISPDQSDPASETQSETESTNPLSDDSTPTASTSAEETK	~14
chain 1 MSDPKPTRSQGDLAEMLEELLDKGVVVNADIAVSVGDTELLGIELRAAIASFETAAEYGLEFPTGTDMERVESAANISPDQSDPASETQSETESTNPLSDDSTPTASTSAEETK	~7
chain 1 MSDPKPTRSQGDLAEMAEMLLDKGVVVNADIAVSVGDTELLGIELRAAIASFETAAEYGLEFPTGTDMERVESAANISPDQSDPASETQSETESTNPLSDDSTPTASTSAEETK	~14
chain 1 MSDPKPTRSQGDLAEMLEMLLDAGVVVNADIAVSVGDTELLGIELRAAIASFETAAEYGLEFPTGTDMERVESAANISPDQSDPASETQSETESTNPLSDDSTPTASTSAEETK	~14
chain 1 MSDPKPTRSQGDLAEMLEMILDKGVVVNADIAVSVGDTELLGIELRAAIASFETAAEYGLEFPTGTDMERVESAANISPDQSDPASETQSETESTNPLSDDSTPTASTSAEETK	~14

The remaining lines, values ahead:

response	Variant
~9	chain 1 MSDPKPTRSQGDLAEMLQMLLDKGVVVNADIAVSVGDTELLGIELRAAIASFETAAEYGLEFPTGTDMERVESAANISPDQSDPASETQSETESTNPLSDDSTPTASTSAEETK
~14	chain 1 MSDPKPTRSQGDLAEMLDMLLDKGVVVNADIAVSVGDTELLGIELRAAIASFETAAEYGLEFPTGTDMERVESAANISPDQSDPASETQSETESTNPLSDDSTPTASTSAEETK
~9.5	chain 1 MSDPKPTRSQGDLAEMLAMLLDKGVVVNADIAVSVGDTELLGIELRAAIASFETAAEYGLEFPTGTDMERVESAANISPDQSDPASETQSETESTNPLSDDSTPTASTSAEETK
~7.2	chain 1 MSDPKPTRSQGDLAEMLEMLLDKAVVVNADIAVSVGDTELLGIELRAAIASFETAAEYGLEFPTGTDMERVESAANISPDQSDPASETQSETESTNPLSDDSTPTASTSAEETK
~18	chain 1 MSDPKPTRSQGDLAEMLEMLLDKGVVVNADIAASVGDTELLGIELRAAIASFETAAEYGLEFPTGTDMERVESAANISPDQSDPASETQSETESTNPLSDDSTPTASTSAEETK
~9.3	chain 1 MSDPKPTRSQGDLAEALEMLLDKGVVVNADIAVSVGDTELLGIELRAAIASFETAAEYGLEFPTGTDMERVESAANISPDQSDPASETQSETESTNPLSDDSTPTASTSAEETK
~18	chain 1 MSDPKPTRSQGDLAEMLEMLLDKGVVVNADIAVSVGDTELLGIELRAAAASFETAAEYGLEFPTGTDMERVESAANISPDQSDPASETQSETESTNPLSDDSTPTASTSAEETK
~9	chain 1 MSDPKPTRSQGDLAEMLEMLADKGVVVNADIAVSVGDTELLGIELRAAIASFETAAEYGLEFPTGTDMERVESAANISPDQSDPASETQSETESTNPLSDDSTPTASTSAEETK
~17	chain 1 MSDPKPTRSQGDLAEMLEMLLDKGVVVNADIAVSVGDTELLGIELRAAIDSFETAAEYGLEFPTGTDMERVESAANISPDQSDPASETQSETESTNPLSDDSTPTASTSAEETK
~17	chain 1 MSDPKPTRSQGDLAEMLEMLLDKGVVVNADIAVSVGDTELLGIELRAAIAAFETAAEYGLEFPTGTDMERVESAANISPDQSDPASETQSETESTNPLSDDSTPTASTSAEETK
~14	chain 1 MSDPKPTRSQGDLAEMLEMLLDRGVVVNADIAVSVGDTELLGIELRAAIASFETAAEYGLEFPTGTDMERVESAANISPDQSDPASETQSETESTNPLSDDSTPTASTSAEETK

Variants of: B3
Assay: split-GFP; Hfx. volcanii transformants; parent: 65; read off a plot

Variant	response
chain 1 MEPTKDEAHAIVEFVDVLLRDGAVI	~110
chain 1 MEPTKDETHAIVEFVDVLARDGAVI	~81
chain 1 MEPTKDETHAIVEFVDALLRDGAVI	~74
chain 1 MEPTKDETHAIVEFVDVLLRDAAVI	~86
chain 1 MAPTKDETHAIVEFVDVLLRDGAVI	~67
chain 1 MEPTKDETHDIVEFVDVLLRDGAVI	~58
chain 1 MEPTKDETHAAVEFVDVLLRDGAVI	~84
chain 1 MEPTKDETHAIVEAVDVLLRDGAVI	~57
chain 1 MEPTKDETHAIYEFVDVLLRDGAVI	~58
chain 1 MEPTKDETAAIVEFVDVLLRDGAVI	~62
chain 1 MEPTKDETHAIVEFVDVLLRAGAVI	~67
chain 1 MEPTKDKTHAIVEFVDVLLRDGAVI	~80
chain 1 MEPTKDETHAIVAFVDVLLRDGAVI	~61
chain 1 MEPTKDETHAIVEFVDVALRDGAVI	~75
chain 1 MEPTKDETHAIVEFVDVLLRDGAAI	~74

The next lines start with the values.

response	Variant
~100	chain 1 MEPTKDETHAIVEFADVLLRDGAVI
~54	chain 1 MEPTKDETHAIVEFVDVLLADGAVI
~110	chain 1 MEPTKDETHADVEFVDVLLRDGAVI
~46	chain 1 MEPTKDETHAIVEFVAVLLRDGAVI
~84	chain 1 MEATKDETHAIVEFVDVLLRDGAVI
~94	chain 1 MEPTKDETHAIVEFVDVLLRDGDVI
~70	chain 1 MEPAKDETHAIVEFVDVLLRDGAVI
